Data reported in PMC8215210.

Target: T1, His-OpaR (Vibrio parahaemolyticus RIMD2210633) (UniProt Q79YV4)
T1 sequence: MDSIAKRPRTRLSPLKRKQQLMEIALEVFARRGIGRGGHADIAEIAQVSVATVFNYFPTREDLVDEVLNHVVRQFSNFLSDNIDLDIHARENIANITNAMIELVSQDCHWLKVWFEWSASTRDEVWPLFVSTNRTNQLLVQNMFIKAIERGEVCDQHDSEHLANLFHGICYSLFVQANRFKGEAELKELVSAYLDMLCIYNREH
Test: DNase I footprinting
Conditions: Buffer, salt, pH and temperature not given (as in Zhang et al., 2012, 2017); EMSA on 6% polyacrylamide gel; footprinting with 0, 6, 9, 12 pmol His-OpaR

With “GCCATATTCCAAACTCGTTGTGCCTGCCTTTTCAAGAACTGCTGGATAACGGTTACATCAAACCGAACTCAGAATTGAAACAAGCATTTAGCGAACTGTCGCTATATAATGACAATTCAATCATTTTCAGCTGTGGCTCAGGTGTGACTGCCTGTATTTTATTGTTGGCAGCTCATCAACTTGGCTTACGCA (double strand) [VPA1176 footprint probe]” the binding was “binds”.

“AGACAATCACACCGATAGCCAGTAAGAAAATCATCACAAAAGGGATGAGTACAGCAGTACGTAGTGTAATTTGAGTCTTTGCAGTAGACATTGCCTAGTCACATTAGGGATGGTTCACCTTAATTGTACTGACATTTCTGTTAATATCGAGCGCTAAGCACTCTCATTGTTAACTCACTGCTTAAGTGACGGTCAGTACAACTCTTTTAACTTTCTGGTTAGCGTATTGCGTCCCCAGCCTAATACTTTAGCGGCATCTTGCTTGTGACCTTTAGTGTG (double strand) [VP0117 footprint probe]” was tested, and the binding was “binds”.

For “CCATTAAGTGACTTTAGTTCCACTTTTTTAGCTTATTTGATGACATAAGCAACAGTTTCGCCTCCAACCAATAAACAACTGAATACATATTAAAATATTCATTAAATTGACTATTTTTATGATAAACGCTTAATAATAGTTTTATCTATAAACAAACAGTGAGCTTTGTTATAAATTCATTAAAAATTTAACTTTGTATTAATTAGAAAATTCAGCGTCATATTTGTTCAACTGCGA (double strand) [scrA footprint probe]”, the binding was “binds”.

In the case of “GCTTTTCTAGGCACAAAATGACTTTAGAATGGATTAATGCGAAAGCAATTAAAAAAGTGTGAGTAACGGCTGCAAACTATTGATTTCAATGTCAGGTAACGTACGTGTTCTTGAATGATTAATGACATTTTTATTCATATCATTAAACCAACATGCGGCAAAACCCGCTAACTTTGCACCATATACATCCGTCGTGAGGTGGTCACCAACATGCAAAATGTTTTCGGCAGGTAAATCGAGGAACTGCT (double strand) [VP2979 footprint probe]”, the binding is reported as “binds”.

For “CTTACCTTGGCGTACCTCTTGCCAATCCGTACTTTCAAATAAATCGCCTTGTCCTTGCATCCCGTTGCCTATTTAAACCATAAAAATTTCAGATAATTATTACCTTTGCAAAGGCTATTGGTTATTCTTGTAGATAATAAGAATTTTAACAATAAAAGAATAATTCTCGTAGTAACGGACGAGCTAGTGGGGAGCTAATGCGTTATTCACCCAGAAAGCAGT (double strand) [VPA0198 footprint probe]”, the binding was “binds”.

In the case of “CCACTCCTCTTACAAGAATGAGGACGACATCAAGAAAATATTAAAAAATGGATAATTAACCATCGGTTAAGCGTAATAACTAATGACGCTATAAAGTTTTTTGTTATTATCAGTTAATTGTCAGTAGTACATGGACTTAACCGTAGTCGTTTCATGGGAATCTTGGAATCCGATATT (double strand) [VP0699 footprint probe]”, the binding is reported as “binds”.
